The values below are quoted from earlier work in article PMC2892782.

The target of this data set is Lys41 (UniProt position 67, TKDRCKPVNTF). The data set can be described thus: NMR.

With “Ribonuclease A (bovine pancreatic ribonuclease) (Bos taurus)”, the pKa is 8.6-9.1.
